Measurements reported in patent US11931423B2, “Glucose oxidase-nanoparticle bioconjugates for cancer treatment” (UNIVERSITY OF PITTSBURGH—OF THE COMMONWEALTH SYSTEM OF …, priority 2017, dated 2024).

Key:
[1] = test system: 4T1 cells; assay: In vivo therapeutic efficacy in 4T1 tumor-bearing mice; details: for tumor growth (relative tumor volume): 4T1 tumors, single tail vein injection, 21 days, SPION-GOx 5 mg/kg, SPION 5 mg/kg, GOx 8.5 nmol/kg
Protocol: 4T1 cells (2×10^5 cell/mouse) were implanted subcutaneously into the right shoulders of female balb/c mice (˜20 g). In vivo therapeutic efficacy experiments were performed when the tumor reached 6˜8 mm in average diameter (10 days after implant). 3-5 mice were randomly assigned to 4 groups, to which the following agents were administered via tail vein injection: Group A were administered with a mixture of unconjugated SPION and GOx at the dosage of 5 mg/kg and 8.5 nmol/kg respectively; Group B were administered with GOx at the dosage of 8.5 nmol/kg; Group C were administered with 200 μL saline as control; and Group D were administered with a single dose of 5 mg/mL SPION-GOx in saline at a dosage of 5 mg/kg. All the administration was made at about the same time of the day. The size and size distribution of SPION-GOx bioconjugates were determined using DLS before injection to ensure the conjugation was complete and no precipitation was formed in the suspension. The SPION-GOx PBS solution to be used on animal study was tested using a TMB assay to verify the effective generation of ROS. The weight and health conditions of the mice were monitored daily. The tumor sizes were measured and recorded every other day in the first 12 days, and then every 3 days until 21 days post injection, at which time point the tumors were harvested. The volumes of the tumors were calculated by the following equation: V=L×W^2/2.

[2] = test system: ROS; assay: TMB-based ROS activity assay; type: biochemical; details: in the presence of glucose, 37° C., 2 h, pH 4
Source text: Production of ROS by the GOx-SPION bioconjugate was characterized by using a color agent 3,3′,5,5′-tetramethylbenzidine (TMB). TMB is known to be able to produce a blue color in the presence of ROS, which can be quantified by measuring the absorption at the wavelength of 650 nm. As a comparison, the levels of ROS produced by GOx and SPION alone, a mixture of GOx and SPION without conjugation, as well as the mAb-GOx-SPION bioconjugate were characterized.
The TMB-based ROS activity assay was carried out by using the following process. 20 μL SPION (5.0 mg/mL), GOx (1.0 mg/mL), a mixture of GOx (0.5 mg/mL) and SPION (2.5 mg/mL) without conjugation, GOx-SPION (5.0 mg/mL), and mAb-GOx-SPION (5.0 mg/mL) were each added into 380 μL of reaction buffer (0.1 M NaAc, pH 4, 50 μg TMB), followed by addition of either 100 μL of 100 mM glucose or 100 μL of DiH2O. After the mixtures were incubated at 37° C. for 2 h, the color change was detected with a Hitachi UV-Vis spectrophotometer.

[3] = test system: 4T1 breast cancer xenografts; assay: Biodistribution in mice with 4T1 breast cancer xenografts; type: in vivo; details: 150 μg, mice with 4T1 xenografts, 1 day after injection
Protocol: To visualize the biodistribution of GOx-SPION within mouse models, GOx-SPION was tagged with a fluorescent dye (Cy7 moiety). 150 μg of the resulting SPION-GOx-Cy7 bioconjugate was administered to 5 mice having 4T1 breast cancer xenografts. The biodistribution of the bioconjugates was imaged at 1 day, 3 days, 4 days, 5 days, 6 days, and 7 days after injection (see FIGS. 12A-12B).

B1: glucose oxidase (protein, UniProt P13006 17-605, looked up)
Glucose oxidase: LPHYIRSNGIEASLLTDPKDVSGRTVDYIIAGGGLTGLTTAARLTENPNISVLVIESGSYESDRGPIIEDLNAYGDIFGSSVDHAYETVELATNNQTALIRSGNGLGGSTLVNGGTWTRPHKAQVDSWETVFGNEGWNWDNVAAYSLQAERARAPNAKQIAAGHYFNASCHGVNGTVHAGPRDTGDDYSPIVKALMSAVEDRGVPTKKDFGCGDPHGVSMFPNTLHEDQVRSDAAREWLLPNYQRPNLQVLTGQYVGKVLLSQNGTTPRAVGVEFGTHKGNTHNVYAKHEVLLAAGSAVSPTILEYSGIGMKSILEPLGIDTVVDLPVGLNLQDQTTATVRSRITSAGAGQGQAAWFATFNETFGDYSEKAHELLNTKLEQWAEEAVARGGFHNTTALLIQYENYRDWIVNHNVAYSELFLDTAGVASFDVWDLLPFTRGYVHILDKDPYLHHFAYDPQYFLNELDLLGQAAATQLARNISNSGAMQTYFAGETIPGDNLAYDADLSAWTEYIPYHFRPNYHGVGTCSMMPKEMGGVVDNAARVYGVQGLRVIDGSIPPTQMSSHVMTVFYAMALKISDAILEDYASMQ
tumor growth (relative tumor volume) [1]: inhibited tumor growth to a much lesser extent
production of ROS (peak height at 650 nm, TMB) [2]: neither GOx nor SPION alone is able to produce ROS

B2: SPION-GOx-Cy7: GOx-SPION tagged with a fluorescent dye (Cy7 moiety) (conjugate, UniProt P13006 17-605, looked up)
Glucose oxidase: LPHYIRSNGIEASLLTDPKDVSGRTVDYIIAGGGLTGLTTAARLTENPNISVLVIESGSYESDRGPIIEDLNAYGDIFGSSVDHAYETVELATNNQTALIRSGNGLGGSTLVNGGTWTRPHKAQVDSWETVFGNEGWNWDNVAAYSLQAERARAPNAKQIAAGHYFNASCHGVNGTVHAGPRDTGDDYSPIVKALMSAVEDRGVPTKKDFGCGDPHGVSMFPNTLHEDQVRSDAAREWLLPNYQRPNLQVLTGQYVGKVLLSQNGTTPRAVGVEFGTHKGNTHNVYAKHEVLLAAGSAVSPTILEYSGIGMKSILEPLGIDTVVDLPVGLNLQDQTTATVRSRITSAGAGQGQAAWFATFNETFGDYSEKAHELLNTKLEQWAEEAVARGGFHNTTALLIQYENYRDWIVNHNVAYSELFLDTAGVASFDVWDLLPFTRGYVHILDKDPYLHHFAYDPQYFLNELDLLGQAAATQLARNISNSGAMQTYFAGETIPGDNLAYDADLSAWTEYIPYHFRPNYHGVGTCSMMPKEMGGVVDNAARVYGVQGLRVIDGSIPPTQMSSHVMTVFYAMALKISDAILEDYASMQ
modifications: SPION conjugate, Cy7 dye
biodistribution (uptake) [3]: initial uptake of the bioconjugates was to tumor cells

B3: GOx-SPION: glucose oxidase conjugated to superparamagnetic iron oxide nanoparticle via Tz/TCO bioorthogonal ligation (conjugate, UniProt P13006 17-605, looked up)
Glucose oxidase: LPHYIRSNGIEASLLTDPKDVSGRTVDYIIAGGGLTGLTTAARLTENPNISVLVIESGSYESDRGPIIEDLNAYGDIFGSSVDHAYETVELATNNQTALIRSGNGLGGSTLVNGGTWTRPHKAQVDSWETVFGNEGWNWDNVAAYSLQAERARAPNAKQIAAGHYFNASCHGVNGTVHAGPRDTGDDYSPIVKALMSAVEDRGVPTKKDFGCGDPHGVSMFPNTLHEDQVRSDAAREWLLPNYQRPNLQVLTGQYVGKVLLSQNGTTPRAVGVEFGTHKGNTHNVYAKHEVLLAAGSAVSPTILEYSGIGMKSILEPLGIDTVVDLPVGLNLQDQTTATVRSRITSAGAGQGQAAWFATFNETFGDYSEKAHELLNTKLEQWAEEAVARGGFHNTTALLIQYENYRDWIVNHNVAYSELFLDTAGVASFDVWDLLPFTRGYVHILDKDPYLHHFAYDPQYFLNELDLLGQAAATQLARNISNSGAMQTYFAGETIPGDNLAYDADLSAWTEYIPYHFRPNYHGVGTCSMMPKEMGGVVDNAARVYGVQGLRVIDGSIPPTQMSSHVMTVFYAMALKISDAILEDYASMQ
modifications: superparamagnetic iron oxide nanoparticle
side effects (weight loss or death) ([1]; 4T1 tumor mice, 5 mg/kg tail vein): no severe side effects
tumor growth (relative tumor volume) [1]: significant slowdown of tumor growth
body weight loss during treatment ([1]; mouse, in vivo, 5 mg/kg): did not experience any significant body weight loss
production of ROS (peak height at 650 nm, TMB) [2]: synergistic activity between conjugated GOx and SPION
